Sequences and labels used below:
T1: APC10 (AT2G18290) fused at its N-terminus with the traditional TAP tag or with the GS tag (Arabidopsis thaliana) (UniProt Q9ZPW2)
T1 sequence: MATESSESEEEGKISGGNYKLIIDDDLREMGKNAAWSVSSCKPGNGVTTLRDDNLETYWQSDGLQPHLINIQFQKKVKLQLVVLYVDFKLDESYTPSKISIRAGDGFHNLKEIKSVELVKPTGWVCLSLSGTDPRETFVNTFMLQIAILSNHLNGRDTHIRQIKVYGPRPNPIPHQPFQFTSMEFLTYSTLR

B1: SAMBA (AT1G32310) (protein)
chain: MNGASPAHSLVSTTAVAGGGGSSGAAAGLDDFHFPPDIPSMQERKDEAMRVLKADLMTELDKEVKSLEEDSWMFEGPRSRIHLISRRGNFLKKGGEVKLW

This experiment addresses T1, APC10 (AT2G18290) fused at its N-terminus with the traditional TAP tag or with the GS tag (Arabidopsis thaliana). Nature of the experiment: TAP purification with tagged APC10 as bait from Arabidopsis cell suspension culture, MALDI-TOF/TOF MS identification.
As to “CCS52B (AT5G13840) (from UniProt Q8LPL5 1-481)”, the Found/6 exp (of 6 experiments) came out at 1.

With “expressed protein (AT4G25550) (from UniProt Q8GXS3 1-200)”, the Found/6 exp (of 6 experiments) was 2.

Turning to “eukaryotic translation initiation factor 3 subunit 8 (AT3G56150) (from UniProt O49160 1-900)”, the Found/6 exp (of 6 experiments) worked out at 1.

As for “APC5 (AT1G06590) (from UniProt Q8H1U4 1-916)”, the Found/6 exp (of 6 experiments) worked out at 6.

In turn, “APC7 (AT2G39090) (from UniProt Q8VY89 1-558)” gave a Found/6 exp (of 6 experiments) of 6.

Take “RNase L inhibitor protein, putative (AT4G19210) (from UniProt Q8LPJ4 1-605)”: the Found/6 exp (of 6 experiments) stood at 2.

In the case of “CDC27b (AT2G20000) (from UniProt Q8LGU6 1-744)”, the Found/6 exp (of 6 experiments) was 6.

In turn, “APC1 (AT5G05560) (from UniProt Q9FFF9 1-1678)” returned a Found/6 exp (of 6 experiments) of 6.

Molecule “UVI4-like (AT3G57860) (from UniProt Q9M2R1 1-243)” came in with a Found/6 exp (of 6 experiments) of 2.

As to “APC4 (AT4G21530) (from UniProt O65418 1-777)”, the Found/6 exp (of 6 experiments) amounted to 6.

Take “UVI4 (AT2G42260) (from UniProt O48533 1-259)”: the Found/6 exp (of 6 experiments) came out at 3.

“phosphoprotein-related (ELF8) (AT2G06210) (from UniProt B5X0I6 2-1091)” showed a Found/6 exp (of 6 experiments) of 1.

Turning to “CDC27a (AT3G16320) (from UniProt Q06AN9 1-717)”, the Found/6 exp (of 6 experiments) worked out at 4.

As to “APC8 (AT3G48150) (from UniProt Q9STS3 1-579)”, the Found/6 exp (of 6 experiments) was 6.

In turn, “CDKA; 1 (AT3G48750) (from UniProt P24100 1-294) (enzyme)” had a Found/6 exp (of 6 experiments) of 1.

As to “APC2 (AT2G04660) (from UniProt Q8H1U5 1-865)”, the Found/6 exp (of 6 experiments) was found to be 3.

Turning to “CDC16 (AT1G78770) (from UniProt B3DNN5 1-543)”, the Found/6 exp (of 6 experiments) worked out at 6.

On to B1, for which the Found/6 exp (of 6 experiments) turned out to be 4.

These data come from patent US20110307974A1.
